What all share (assay): cell-based or functional assay
Experiment [1] concerns the target HA of ca A/chicken/Hong Kong/G9/97 (H9N2) (influenza A virus).
In experiment [2] the target is HA of A/New York/39/2012 (H3N2) (influenza A virus).
The target of experiment [3] is HA of ca B/Ann Arbor/1/66 (influenza B virus).
For experiment [4], the target named is HA of ca B/Beijing/243/97 (victoria) (influenza B virus).
Experiment [5] has as its target HA of B/Hong Kong/330/2001 (victoria) (influenza B virus).
Experiment [6] concerns the target HA of B/Ohio/1/2005 (victoria) (influenza B virus).
Experiment [7] has as its target HA of B/New Jersey/01/2012 (victoria) (influenza B virus).
The target in experiment [8] is HA of A/California/07/2009 (H1N1) (influenza A virus).
The target of experiment [9] is HA of A/Hong Kong/8/68 (H3N2) (influenza A virus).
Experiment [10] has as its target HA protein derived from A/South Dakota/6/2007 H1N1, on stably transfected MDCK cells (influenza A virus).

B1: GL20/39 BiS4 100/44 (bispecific antibody)
light: DIQMTQSPSSLSASVGDRVTITCRTSQSLSSYTHWYQQKPGKAPKLLIYAASSRGSGVPSRFSGSGSGTDFTLTISSLQPEDFATYYCQQSRTFGQGTKVEIKRTVAAPSVFIFPPSDEQLKSGTASVVCLLNNFYPREAKVQWKVDNALQSGNSQESVTEQDSKDSTYSLSSTLTLSKADYEKHKVYACEVTHQGLSSPVTKSFNRGEC
heavy: not shown
Regarding B1, the “Neutralization (IC50)” value in [1] was 1.6 nM; in [2], 0.5 nM; in experiment [3], 12.8 nM; in experiment [4], 25.9 nM; in experiment [5], 66.9 nM; in experiment [6] it was 18.7 nM. Also, the “Neutralization (IC50)” value in experiment [7] was 23 nM.

B2: GL20 IgG (antibody, V domains shown)
VH: QVQLQQSGPGLVKPSQTLSLTCAISGDSVSSYNAVWNWIRQSPSRGLEWLGRTYYRSGWYNDYAESVKSRITINPDTSKNQFSLQLNSVTPEDTAVYYCARSGHITVFGVNVDAFDMWGQGTMVTVSS
VL: DIQMTQSPSSLSASVGDRVTITCRTSQSLSSYTHWYQQKPGKAPKLLIYAASSRGSGVPSRFSGSGSGTDFTLTISSLQPEDFATYYCQQSRTFGQGTKVEIK
Consider B2, for which the figures for the “ADCC: NK cell killing of infected A549 cells (LDH release), IC50” value in experiment [8] and in experiment [9] were 0.024 nM and 0.018 nM, respectively. Also, the “EC50 (read off the curve), ADCP % double positive” value in experiment [10] was ~0.04 nM.

For the origin of these results see US20180155413A1 (AstraZeneca / MedImmune, published 2018).
